# In patent US20210206850A1 (ACCURUS BIOSCIENCES, published 2021):
# Numbering of substitutions follows the chain as printed. Where “and” joins values, the source holds several entries; their conditions need not be identical. Identical values can stand only once.
# T1: His tagged mouse CD47 protein (mouse, UniProt Q61735 19-140, limits assumed)
# T1 construct: Bought protein
# T1 sequence (looked up): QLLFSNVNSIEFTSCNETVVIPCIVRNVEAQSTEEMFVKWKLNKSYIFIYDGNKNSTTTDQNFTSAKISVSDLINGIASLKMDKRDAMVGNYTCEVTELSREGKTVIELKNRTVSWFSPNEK
# B1: D8S1 (antibody, V domains shown)
# VH: EVQLQQSVAELVRPGASVKLSCTVSGFNIKNTYIYWVKQRPEQGLEWIGRIDPANGNTKDAPKFQGKATMTADTSSNTAYLQLSSLTSEDTAIYYCARGYGSGFAYWGQGTLVTVSA
# VL: DIQMTQTTSSLSASLGDRVTISCRASQDISNHLNWYQQKPDGIVKLLIYYTSRLHSGVPSRFSGSGSGTDYSLTISNLEQEDIATYFCQQGSTLPFTFGSGTKLEIK
# notes: Mouse hybridoma form; the mouse/human chimeric form with the same V regions is m13; also called D8S1 mouse anti-human CD47 hybridoma antibody
# B2: D41S2 (antibody, V domains shown)
# VH: B1 VH with V24P, K38R
# VL: B1 VL with I43T
# notes: Mouse hybridoma form; the mouse/human chimeric form with the same V regions is m16; also called D41S2 mouse anti-human CD47 hybridoma antibody
# B3: D36S4 mouse/human chimeric anti-human CD47 antibody (antibody, V domains shown)
# VH: EVKLEESGGGLVQPGGSMKLSCVASGFTFSRYWMNWVRQSPDKGLEWVAQIRLKSDNYETHYAESVKGRFTISRDDSKSSVYLQMNNLRAEDTGIYYCIEEGGYYVPFAYWGQGTLVTVSA
# VL: DIVVSQSPSSLAVSAGEKVTMSCKSSQSLFKSRTRKNYLAWYQQRPGQSPKLLIYWASIRESGVPDRFTGSGSGTEFTLTISSVQAEDLAVYYCKQSYYLLTFGAGTKLELK
# notes: also called chimeric D36S4 antibody; D36S4 H/L
# B4: D8S1 mouse/human chimeric anti-human CD47 antibody (antibody, V domains shown)
# VH: B1 VH
# VL: B1 VL
# notes: also called chimeric D8S1
# B5: D41S2 mouse/human chimeric anti-human CD47 antibody (antibody, V domains shown)
# VH: B1 VH with V24P, K38R
# VL: B1 VL with I43T
# notes: also called chimeric D41S2
# B6: D28S1 mouse/human chimeric anti-human CD47 antibody (antibody, V domains shown)
# VH: EVQLVESGGDLVKPGGSLKLSCAASGFTFTSYGMSWVRQTPDKRLEWVATINTGGSYTYYPDSVKGRFTISRDNAKNTLYLQMSSLKSEDTAMYYCARHTIKSLMDYWGQGTSVTVSS
# VL: ETTVTQSPASLSMAIGEKVTIRCITSTDIDDDMNWYQQKPGEPPKLLISEGNTLRPGVPSRFSSSGYGTDFVFIIENMFSEDVADYYCLQSDNLPYTFGSGTKLEIK
# notes: also called chimeric D28S1; D28S1VH/VL
# B7: D96S1 mouse/human chimeric anti-human CD47 antibody (antibody, V domains shown)
# VH: EVQLQQSGAELVKPGASVKLSCTASGFNIKDTYIHWVKQRPEQGLEWIGRIDPANGNIKSDPKFQGKATVTADTSSNTAYLQLSSLTSEDTAVYYCARSYGSSFASWGQGTLVTVSP
# VL: B1 VL with I43A, L94F, F96Y, S100G
# notes: also called chimeric D96S1
# B8: D125S3 mouse/human chimeric anti-human CD47 antibody (antibody, V domains shown)
# VH: EVQLVESGGDLVKPGGSLNLSCAASGFTFSDYGMSWVRQTPDMRLEWVATISKYGTYTSYPDSVKGRFTISRSNAKNTLYLQMSSLKSADTALYYCARRFFGNYNYWYFDVWGAGTTVTVSS
# VL: DIVLTQSPASLAVSLGQRATFSCRASESVDEFGISYIHWYKKSPGQPPKLLIYRASTLESGISARFSGSGSGTDFTLTINPVETDDVATYYCQQSNQDPLTFGAGTKLELK
# notes: also called chimeric D125S3
# B9: HuD36S4 H2/L1 humanized anti-CD47 antibody (antibody, V domains shown)
# VH: EVQLVESGGGLVQPGGSLRLSCAASGFTFSRYWMNWVRQAPGKGLEWVGQIRLKSDNYETHYAESVKGRFTISRDDSKNSLYLQMNSLKTEDTAVYYCIEEGGYYVPFAYWGQGTLVTVSS
# VL: DIVMTQSPDSLAVSLGERATINCKSSQSLFKSRTRKNYLAWYQQKPGQPPKLLIYWASIRESGVPDRFSGSGSGTDFTLTISSLQAEDVAVYYCKQSYYLLTFGGGTKVEIK
# B10: HuD36S4 H1/L1 humanized anti-CD47 antibody (antibody, V domains shown)
# VH: B9 VH with I99A, E100R
# VL: B9 VL
# B11: HuD36S4 H3/L1 humanized anti-CD47 antibody (antibody, V domains shown)
# VH: B9 VH with G49A, N79S
# VL: B9 VL
# B12: HuD36S4 H2/L2 humanized anti-CD47 antibody (antibody, V domains shown)
# VH: B9 VH
# VL: DIVMTQTPLSLPVTPGEPASISCKSSQSLFKSRTRKNYLAWYLQKPGQSPQLLIYWASIRESGVPDRFSGSGSGTDFTLKISRVEAEDVGVYYCKQSYYLLTFGGGTKVEIK
# B13: HuD36S4 H1/L2 humanized anti-CD47 antibody (antibody, V domains shown)
# VH: B9 VH with I99A, E100R
# VL: B12 VL
# B14: HuD36S4 H3/L2 humanized anti-CD47 antibody (antibody, V domains shown)
# VH: B9 VH with G49A, N79S
# VL: B12 VL
# Biological target: T1, His tagged mouse CD47 protein
# Assay: ELISA, plate coated with His tagged mouse CD47 at 2 ug/ml, goat anti-mouse IgG-HRP, OD450
# Experimental: To evaluate the binding cross-reactivity of anti-human CD47 antibodies to cynomolgus and mouse CD47, an ELISA based binding assay was used. Briefly, microtiter plates were coated with His tagged cynomolgus monkey CD47 or His tagged mouse CD47 protein (purchase from Acro Biosystem). Both proteins were coated at 2 μg/ml in PBS, 100 μl/well at 4° C. overnight. The plates were then blocked with 100 μl/well of 2% BSA. Ten-fold dilutions of mouse anti-human CD47 hybridoma antibodies were added to each well starting at 70 ug/ml and incubated for 1-2 hours at RT. The plates were washed with PBS/Tween and then incubate with goat-anti-mouse IgG antibody conjugated with Horse Radish Peroxidase (HRP) for 1 hour at RT. After washing, the plates were developed with TMB substrate and analyzed by spectrophotometer at OD 450 nm.
row,Binder,binding result
1,B1,no binding (tested: 70 ug/ml)
2,B2,no binding (tested: 70 ug/ml)

# Biological target: T2, human CD47ECD His tagged protein (human, UniProt Q08722 19-139, limits assumed)
# T2 construct: extracellular domain; also called HuCD47ECD 8xHis; monovalent CD47ECD His tagged protein
# Assay: ELISA ligand blocking, plate coated with human CD47 ECD His tagged protein at 1 ug/ml; blocked ligand human SIRPaECD huFc at 1 ug/ml, anti-human IgG-HRP
# Experimental: To evaluate the blocking ability of anti-human CD47 mouse mAb on recombinant human CD47 binding to its ligand SIRPα, an ELISA based ligand blocking assay was employed. Briefly, microtiter plates were coated with human CD47ECD His tagged protein at 1 μg/ml in PBS, 100 μl well at 4° C. overnight, then blocked with 100 μl/well of 2% BSA. […] The plates were washed with PBS/Tween and then incubated with anti-human IgG-HRP for 1 hour at 37° C. After washing, the plates were developed with TMB substrate and analyzed by spectrophotometer at OD 450 nm.
# T2 sequence (Q08722 19-139 limits assumed): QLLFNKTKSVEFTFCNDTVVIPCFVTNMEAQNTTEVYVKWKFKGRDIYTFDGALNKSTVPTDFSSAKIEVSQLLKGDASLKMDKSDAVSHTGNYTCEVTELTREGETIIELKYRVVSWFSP
row,Binder,IC50
1,B1,0.27 µg/mL and 1.77 nM
2,B2,0.16 µg/mL and 1.06 nM

# Biological target: T3, human CD47ECD mouse Fc protein (human, UniProt Q08722 19-139, limits assumed)
# T3 construct: extracellular domain; also called HuCD47ECD muFc; bivalent CD47ECD muFc protein; not shown: mouse Fc
# Assay: SPR (Biacore 3000); antibody captured on anti-human Fc chip, bivalent HuCD47ECD muFc injected; column Affinity (nM)
# Experimental: (§1) The binding affinities of anti-human CD47 mouse/human chimeric antibodies to human CD47 protein were determined with BIACORE™ using a capture method. The anti-human CD47 mouse/human chimeric antibodies were captured using anti-human Fc antibody coated on a CMS chip. Serial dilutions of human CD47ECD mouse Fc protein starting from 400 nM were injected over captured antibody for 1 mins at a flow rate of […]. Alternatively, serial dilutions of human CD47ECD His tagged protein starting from 800 nM were injected over captured antibody for 1 min at a flow rate of […]. The antigens were allowed to dissociate for 900s. All the experiments were carried out on a Biacore 3000. Data analysis was carried out using Biacore 3000 evaluation software.
# T3 sequence (Q08722 19-139 limits assumed): as above
row,Binder,Kd [pM]
1,B3,19.4
2,B4,295
3,B5,228
4,B6,1380
5,B7,562
6,B8,346

# Biological target: T4, human CD47 (full length) expressed on cells (human, UniProt Q08722 19-323)
# T4 construct: whole, on cells; also called human CD47/CHO cells; CHO/CD47 cells
# Assay: FACS ligand blocking on CD47-CHO cells; blocked ligand FITC human SIRPa huFc at 4 ug/ml
# Experimental: To evaluate the blocking effect of anti-human CD47 mouse/human chimeric antibodies to human full length CD47 expressed on CHO cells, the FACS-based ligand blocking assay was used. CD47-CHO cells were first incubated with 3 fold serially diluted mouse/human chimeric mAbs starting at 100 μg/ml on ice for 30 min. […] The cells were then washed 3 times with the FACS buffer and the mean florescence intensities (MFI) of FITC were evaluated by FACS Caliber. […] AB6.12 is a humanized version of anti-CD47 antibody 2A1 from Celgene and was used as a reference antibody in the assay.
# T4 sequence (Q08722 19-323): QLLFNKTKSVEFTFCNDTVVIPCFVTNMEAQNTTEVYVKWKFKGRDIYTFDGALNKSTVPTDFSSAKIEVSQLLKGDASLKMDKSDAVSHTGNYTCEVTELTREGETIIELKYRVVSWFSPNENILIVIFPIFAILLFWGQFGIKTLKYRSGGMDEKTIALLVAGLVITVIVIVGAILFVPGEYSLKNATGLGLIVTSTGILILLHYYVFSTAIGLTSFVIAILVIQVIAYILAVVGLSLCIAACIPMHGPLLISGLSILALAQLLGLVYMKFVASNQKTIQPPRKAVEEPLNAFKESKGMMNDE
row,Binder,IC50 [µg/mL]
1,B3,5.1
2,B4,19.4
3,B5,11.6
4,B6,12.3
5,B7,11.3
6,B8,15.4

# Biological target: T2, human CD47ECD His tagged protein
# Assay: SPR (Biacore 3000); antibody captured on anti-human Fc chip, monovalent HuCD47ECD 8xHis injected
# Experimental: as §1
Binder,Kd [pM],koff [s⁻¹],kon [M⁻¹ s⁻¹]
B3,702,0.000236,337000
B4,3280,0.00049,150000
B5,5200,0.000756,145000
B7,3130,0.000253,80900
B8,3620,0.000511,163000

# Biological target: T2, human CD47ECD His tagged protein
# Assay: ELISA ligand blocking, plate coated with human CD47 ECD His tagged protein at 1 ug/ml; blocked ligand human SIRPaECD muFc at 1 ug/ml, anti-mouse IgG-HRP
# Experimental: Briefly, microtiter plates were coated with human CD47ECD His tagged protein at 1 μg/ml in PBS, 100 μl well at 4° C. overnight, then blocked with 100 μl/well of 2% BSA. […] The plates were washed with PBS/Tween and then incubated with anti-mouse IgG-HRP for 1 hour at 37° C. After washing, the plates were developed with TMB substrate and analyzed by spectrophotometer at OD 450 nm.
row,Binder,IC50 [µg/mL]
1,B9,0.09
2,B10,2.3
3,B11,0.17
4,B12,0.11
5,B13,2.76
6,B14,0.1
7,B3,0.07

# Biological target: T3, human CD47ECD mouse Fc protein
# Assay: SPR (Biacore 3000); antibody captured on anti-human Fc chip, bivalent HuCD47ECD muFc injected
# Experimental: as §1
Binder,Kd [pM],koff [s⁻¹],kon [M⁻¹ s⁻¹]
B3,19.4,1.18e-05,605000
B4,295,4.77e-05,161000
B5,228,3.34e-05,147000
B6,1380,0.000413,299000
B7,,1.45e-05,257000
B8,346,7.72e-05,223000

# Biological target: T2, human CD47ECD His tagged protein
# Assay: SPR (Biacore 3000); antibody captured on anti-human Fc chip, monovalent HuCD47ECD 8xHis injected; column Affinity (nM)
# Experimental: as §1
row,Binder,Kd [pM]
1,B3,702
2,B4,3280
3,B5,5200
4,B7,3130
5,B8,3620

# Biological target: T4, human CD47 (full length) expressed on …
# Assay: FACS ligand blocking on CD47-CHO cells; blocked ligand FITC human SIRPa huFc at 5 ug/ml
# Experimental: The cells were then washed 3 times with the FACS buffer and the mean florescence intensities (MFI) of FITC were evaluated by FACS Caliber.
row,Binder,IC50 [µg/mL]
1,B9,1.9
2,B10,7.3
3,B11,4.4
4,B12,3.6
5,B13,13
6,B14,2.5
7,B3,1.6
